Experimental data taken from the supplement of paper PMC9170038.

Experiments:
MS2 coat protein [1] = assay: apparent KD of MS2 coat protein, switch ON state; designed switch direction (-1 OFF switch, 1 ON switch): -1; higher = weaker reporter binding; conditions: FMN input: 0 or 200 uM; Eterna round: R93 (includes R88 designs)
Procedure, shortened: (§1)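 Designed RNA switches were transcribed on-chip from Illumina sequencing clusters and titrated with SNAP-549-labelled MS2 coat protein in twofold steps from 0.7 or 1.5 nM up to 3 µM. Each step lasted 0.8–1.5 h at first and 10–20 min by the end, in 100 mM Tris-HCl pH 7.5, 80 mM KCl and 4 mM MgCl2, without or with constant ligand. Apparent KD is the median, for each design, of fits to normalised cluster binding curves.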

MS2 coat protein [2] = assay: apparent KD of MS2 coat protein, switch OFF state (with FMN for OFF switches, without FMN for ON switches); designed switch direction (-1 OFF switch, 1 ON switch): -1; higher = weaker reporter binding; conditions: FMN input: 0 or 200 uM; Eterna round: R93 (includes R88 designs)
Procedure, shortened: as §1

Sequence	apparent KD of MS2 coat protein (MS2 coat protein [1]) [nM]	apparent KD of MS2 coat protein (MS2 coat protein [2]) [nM]
AAAUAGUUAGGAUAUACAUGAGGAUCACCCAUGUGGACUUAUGGAGAAUAGUCUAAUGGUAGAAGGGACUAAAA [EX2 Malc#24]	69.8	45.8
AAAUGACUAGGAUAUACAUGAGGAUCACCCAUGUGUUAAAAUAAAUACACAAAAGAAAGUAGAAGGAGUCAAAG [Mat - Exclusion 3 - Mayanna mod - D125]	21.5	43.4
AACAAGUCAGGAUAUGCGAAAAGAAAAUAAGAUACACAAAAGCAGAAGGGACAUGAGGAUCACCCAUGUAAAUA [JR_Exc004_Sub011]	36	33.1
AACAGGACAGGAUAUACAUGAGGAUCACCCAUGUGAAGAUUAAGAAGAAACCCACAAAGUAGAAGGGUCCUGGA [Ruby 93]	25	51
AACAGGACAGGAUAUACAUGAGGAUCACCCAUGUGAGAAUUAAGUAGAUUACCACAGAGUAGAAGGGUCCUGGA [Ruby 96]	47.7	99.5
AACAGUACAGGAUAUACAUGAGGAUCACCCAUGUAAAAAUAAAAAGGGAACUCAAAAAGUAGAAGGGUACUGGA [Moding Maslow revisited (73) 14]	72.6	32.5
AACAGUACAGGAUAUACAUGAGGAUCACCCAUGUAAAAUAAAUAAAAAUAAAAAGGAAGUAGAAGGGUACUGGA [Moding Maslow revisited (73) 18]	30.1	26.4
AACAGUACAGGAUAUACAUGAGGAUCACCCAUGUAAAGGGAAUAAAACAAAAAUAAAUGUAGAAGGGUACUGGA [Moding Maslow revisited (73) 21]	69.3	129
AACAGUACAGGAUAUACAUGAGGAUCACCCAUGUAGAGAGAAUAAAACAAAAAUAAAAGUAGAAGGGUACUGGA [Ruby 48]	21.8	19.3
AACAGUACAGGAUAUACAUGAGGAUCACCCAUGUGAAAAUUAAGUGGGAAACCACAAAGUAGAAGGGUACUGAA [Mat - Exclusion 3 - Eli mod - D59]	22	114
AACAGUACAGGAUAUACAUGAGGAUCACCCAUGUGAAAAUUAAGUGGGAAACCACAAGGUAGAAGGGUACUGGA [Mat - Exclusion 3 - Eli mod - D64]	27.1	157
AACAGUACAGGAUAUACAUGAGGAUCACCCAUGUGAAAAUUAAGUGGGAAACCACAGUGUAGAAGGGUACUGGA [Mat - Exclusion 3 - Eli mod - D54]	102	51.9
AACAGUACAGGAUAUACAUGAGGAUCACCCAUGUGAAAGAAAAGUGGCGUACCACAAAGUAGAAGGGUACUGGA [Mat - Exclusion 3 - JL mod - D23]	26.9	122
AACAGUACAGGAUAUACAUGAGGAUCACCCAUGUGAGAAUUAAGCAGCGUAACACACAGUAGAAGGGUAAUGGA [Ruby 20]	46.4	40.7
AACAGUACAGGAUAUACAUGAGGAUCACCCAUGUGAGAAUUAAGUGGAGAACCACAAAGUAGAAGGGUACUGAA [Mat - Exclusion 3 - JL mod - D8]	39.2	147
AACAUGUCAGGAUAUGUAGCAAAAAGUGAUCCAAAAAAGCUACAGAAGGGACAUGAGGAUCACCCAUGUAAAAA [Ex4: 933]	124	44.5
AACCAACAUGAGGAUCACCCAUGUCAGGAUAUGCAAACAACAAACAACAAACAACAAAGCAGAAGGGACAAAAA [Amethyst 82]	17.8	19.5
AACGGGCUAGGAUAUACACAAGCCUCAUAACAAAUAAACAAACAUGAGGAUCACCCAUGUAGAAGGAGCGCAAA [Quraaon]	33	72.5
AACUAGUGAGGAUAUGCAAGAAAAAAAAAAAAAAUAAAGGGACAUGAGGAUCACCCAUGUAGAAGGCACUAACA [Diamond 68]	42.7	58.8
AACUGACAUGAGGAUCACCCAUGUCAGGAUAUGACAUCGAAAAAAAAAAAAAUCGUUGUCAGAAGGGACAUGAA [Design 77: Sub-opt SB]	16.7	13.1

Sequence	apparent KD of MS2 coat protein (MS2 coat protein [1]) [nM]	apparent KD of MS2 coat protein (MS2 coat protein [2]) [nM]
AACUGACAUGAGGAUCACCCAUGUCAGGAUAUGACAUCGAAAAAAAAAAAAAUCGUUGUCAGAAGGGACAUGGG [Design 73: Sub-opt QB]	11.9	9.44
AACUGACAUGAGGAUCACCCAUGUCAGGAUAUGAUUUGACGAAAAAAAAUAAGUCAUAUCAGAAGGGACAUGGA [Design 84: Sub-opt WB]	26	45
AACUGACAUGAGGAUCACCCAUGUCAGGAUAUGCAUCUUAGGAAAAAAAAACUAAGAUGCAGAAGGGACAUGGG [Design 3: Super Stable 3]	16.8	15.8
AACUGACAUGAGGAUCACCCAUGUCAGGAUAUGCUUCAUAAAAAAAAAAAAAAAUGAUGCAGAAGGGAUAUGGA [Design 36 :P Sub-opt 12]	21.5	13.6
AACUGGGCAGGAUAUACAUGAGGAUCACCCAUGUAAAGAAAAGAAAGGUCCGAGGAAAGUAGAAGGGCCUGGAA [Variant 5 of Mod 1 of Ex3 sub 3, by Tesla's Dusciple Round 1]	40.6	38.9
AAGAAACAUGAGGAUCACCCAUGUCAGGAUAUUGAAAAGAAAAGAAAAGAAAGAAGAACAAGAAGGGACAAAGG [Neferkare (III) Neby]	37.1	40.3
AAGAACAGAGGAUAUACUAAAGAAAUGAAAAGAAAGAAAGAACAUGAGGAUCACCCAUGUAGAAGGCUGAAGAA [Yakbim Sekhaenre]	25.9	13.5
AAGAACAGAGGAUAUGCUAAAGAAAUAAAAAUAAAUAAAGAACAUGAGGAUCACCCAUGUAGAAGGCUGAAGAA [Seven kings]	28.3	28
AAGAAGACAGGAUAUACAUGAAAGAAAGAAAAGAAAAGAAAACAUGAGGAUCACCCAUGUAGAAGGGUCAAGAA [EteRNA is fun!]	23.5	34.9
AAGAAGGCAGGAUAUACAAAAUAAAAGAAAAGAAAGAAAGAACAUGAGGAUCACCCAUGUAGAAGGGCCAAGAA [Seankhibre Amenemhet VI]	58.3	37.2
AAGAAGGUAGGAUAUACUAAAGAAACUAAUGCAAAGAUAAAACAUGAGGAUCACCCAUGUAGAAGGGCCAGAAA [JR_Exc002_Sub016]	35.6	25.1
AAGAAGGUAGGAUAUACUAACGAAACUAAUGCAUAGAUAAAACAUGAGGAUCACCCAUGUAGAAGGGCCAGAAU [JR_Exc002_Sub015]	43.8	26.6
AAGAAGGUAGGAUAUACUAGGGCAACUAAUGCAAAGAUAGAACAUGAGGAUCACCCAUGUAGAAGGGCCAGAAA [JR_Exc002_Sub402]	35.7	40.5
AAGAAGUCAGGAUAUGCCAGAGAUCACGAAAGUGACGAGUAGCAGAAGGGACAUGAGGAUCACCCAUGUAAAGA [Opal 7]	39.8	45
AAGAAGUGAGGAUAUACGCGAACAAAAAAAAAAAAGAAAGCGUAGAAGGCACAUGAGGAUCACCCAUGUCCAAA	27.7	34.9
AAGAAGUGAGGAUAUAGUUGCACUAGCUAAUGCUAGUGCAACUAGAAGGCACAUGAGGAUCACCCAUGUAAAAG [Meechl Ex4 2]	40.6	46.7
AAGAAGUGAGGAUAUCGAAGACUGUCGAAAAGACAGUCGAACGAGAAGGCACAUGAGGAUCACCCAUGUGAUAA [Mat - Exaclusion 4 - Eli mod - D70]	28.2	107
AAGAAGUGAGGAUAUGCUGCUCGUCACAAAAGUGAUGAGUAGCAGAAGGCACAUGAGGAUCACCCAUGUAAAGA [JL eternac mod 1]	40.6	48.8
AAGAAUCGAGGAUAUACAUGAGGAUCACCCAUGUAAAAGAAAGAGGGAAAAGAGAAAAGUAGAAGGCGAAAGAA [Ptolemy Memphitis]	45.9	21.6
AAGAAUGAAGGAUAUACAUGAGGAUCACCCAUGUAAGAGAAAGAGGGAAAAGAGAAAAGUAGAAGGUCAAAGAA [Ruby 72]	22	33.7
